Data taken from US20200190168A1 (US Dept. of Health and Human Services, published 2020).

Experiments:
[1] = target: T1, gp350 B95-8 (2-425) D296R Avi-His (Epstein Barr Virus (B95-8), UniProt P03200 2-425); experiment: flow cytometry staining of IgG+ B cells in human PBMCs, co-stained with anti-CD21
T1 construct: also called D296R gp350 probe; D296R mutant

[2] = target: T2, gp350 B95-8 (2-425) D296R/I160R Avi-His (Epstein Barr Virus (B95-8), UniProt P03200 2-425); experiment: as above
T2 construct: also called gp350 D296R/I160R probe

[3] = target: gp350 B95-8 (2-425) D296R/P158R Avi-His (Epstein Barr Virus (B95-8), UniProt P03200 2-425); experiment: biolayer interferometry (Octet), CR2-Ig on protein A biosensors
[4] = target: gp350 B95-8 (2-425) D296R/P158R/I160R Avi-His (Epstein Barr Virus (B95-8), UniProt P03200 2-425); experiment: as above
[5] = target: T3, gp350 B95-8 (2-425) D296R/P158N*/I160T Avi-His (Epstein Barr Virus (B95-8), UniProt P03200 2-425); experiment: as above
T3 construct: also called D296R/P158N/I160T (glycan addition at 158)

[6] = target: T2, gp350 B95-8 (2-425) D296R/I160R Avi-His; experiment: as above

B1: CR2 (complement receptor 2, CD21) on IgG+ B cells of human PBMCs (receptor)
chain: ISCGSPPPILNGRISYYSTPIAVGTVIRYSCSGTFRLIGEKSLLCITKDKVDGTWDKPAPKCEYFNKYSSCPEPIVPGGYKIRGSTPYRHGDSVTFACKTNFSMNGNKSVWCQANNMWGPTRLPTCVSVFPLECPALPMIHNGHHTSENVGSIAPGLSVTYSCESGYLLVGEKIINCLSSGKWSAVPPTCEEARCKSLGRFPNGKVKEPPILRVGVTANFFCDEGYRLQGPPSSRCVIAGQGVAWTKMPVCEEIFCPSPPPILNGRHIGNSLANVSYGSIVTYTCDPDPEEGVNFILIGESTLRCTVDSQKTGTWSGPAPRCELSTSAVQCPHPQILRGRMVSGQKDRYTYNDTVIFACMFGFTLKGSKQIRCNAQGTWEPSAPVCEKECQAPPNILNGQKEDRHMVRFDPGTSIKYSCNPGYVLVGEESIQCTSEGVWTPPVPQCKVAACEATGRQLLTKPQHQFVRPDVNSSCGEGYKLSGSVYQECQGTIPWFMEIRLCKEITCPPPPVIYNGAHTGSSLEDFPYGTTVTYTCNPGPERGVEFSLIGESTIRCTSNDQERGTWSGPAPLCKLSLLAVQCSHVHIANGYKISGKEAPYFYNDTVTFKCYSGFTLKGSSQIRCKADNTWDPEIPVCEKETCQHVRQSLQELPAGSRVELVNTSCQDGYQLTGHAYQMCQDAENGIWFKKIPLCKVIHCHPPPVIVNGKHTGMMAENFLYGNEVSYECDQGFYLLGEKKLQCRSDSKGHGSWSGPSPQCLRSPPVTRCPNPEVKHGYKLNKTHSAYSHNDIVYVDCNPGFIMNGSRVIRCHTDNTWVPGVPTCIKKAFIGCPPPPKTPNGNHTGGNIARFSPGMSILYSCDQGYLLVGEALLLCTHEGTWSQPAPHCKEVNCSSPADMDGIQKGLEPRKMYQYGAVVTLECEDGYMLEGSPQSQCQSDHQWNPPLAVCRSRSLAPVLCGIAAGLILLTFLIVITLYVISKHRARNYYTDTSQKEAFHLEAREVYSVDPYNPAS
notes: whole, on cells; also called gp350 receptor
binding result [1]: binds
binding result [2]: no binding

B2: CR2-Ig (chimeric molecule of CR2 SCR1-2 domain and IgG Fc region) (Fc fusion)
chain: ISCGSPPPILNGRISYYSTPIAVGTVIRYSCSGTFRLIGEKSLLCITKDKVDGTWDKPAPKCEYFNKYSSCPEPIVPGGYKIRGSTPYRHGDSVTFACKTNFSMNGNKSVWCQANNMWGPTRLPTCVSVFPLE
notes: domain: SCR1-2; not shown: IgG Fc region
binding result [3]: no binding
binding result [4]: no binding
binding result [5]: no binding
binding result [6]: no binding
